Measured values taken from the nanobody polyreactivity screen of Harvey et al. (2022).

assay: yeast display, Sf9 membrane polyspecificity reagent, FACS + sequencing; frameworks hold sequencing errors
Summary of the method: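 A nanobody's polyreactivity label depends on the gate it was sorted from. Yeast display cells were stained with 10% biotinylated, detergent-solubilized Sf9 membrane reagent for 1 hour at 4 °C, enriched on streptavidin microbeads and sorted by FACS. The low and high (top ~1%) gates were set on anti-HA fluorescence for expression and streptavidin fluorescence for reagent binding.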

| Sequence | polyreactivity (PSR sort gate) |
| --- | --- |
| QVQLVESGGGLVQAGGSLRLSCSASGRTFYHYTMGRYIQAPGKERELVAAITSGGSTYYADSVKGRFPISRDNAKNTVYLQMNSLKPEDTAVYYCARVRPLYHYSRYDYWGQGTQVTVSS | high polyreactivity |
| QVQLVESGGGLVQAGGSLRLSCSASGRTFYRNAMGWYRQSPGKESEFVAVISVSGGSTYYADSVKGRFTISRDNAKNTVYLQMNSLKPEDTAVYYCAADEYYTFSCFELRRMDYWGQGTQVTVSS | low polyreactivity |
| QVQLVESGGGLVQAGGSLRLSCSASGRTLTRYTMGWYRKAPGKERELVAGITRSGGSTYYADSVNGRFTISRDNAKNTVYLKMNSLKPEDTAVYYCAVKQRDKFAGGRNDYWGQGTQVTVSS | high polyreactivity |
| QVQLVESGGGLVQAGGSLRLSCSASGSIFFKYAMGWYRQAPGKERELVASITSRGGTTYYADSVKGRFTISRDNAKNTVYLQMNSLKPEDTAVYYCAALRRSSFGYWGQGTQVTVSS | high polyreactivity |
| QVQLVESGGGLVQAGGSLRLSCSASGSIFNYYAMGWYRQPPGKERELVAAISYRTGSTYYADSVKGRFTISRDNSKNTVYLQMNSLKPEDTSVYYCAADTRYGYGYWGQGTQVTVSS | high polyreactivity |
| QVQLVESGGGLVQAGGSLRLSCSASGSIFPYYSMGWYRQAPGQERQLVAAISYSGGRTRYADSVKGRFTISRDNAKNTVYLQMNSLKPEDTAVYYCAVVDRHQPYGRQLDYWGQGTQVTVSS | low polyreactivity |
| QVQLVESGGGLVQAGGSLRLSCSASGSIFRGYTMGLYRQAPGKERELVAGITLRGVSTYYADSVKGRFTISRDNAKNTVYVQMNSLKPEDTAVYYGAVDYGRAVQGDSITYDFNYWGQGTQVTVSS | low polyreactivity |
| QVQLVESGGGLVQAGGSLRLSCSASGSIFRRYAMGWYRQAPGKVRELVAVITTDGSTYYADSVKGRFTISRDNAKNTVYLQMHSLKPEDTAVYYCAAEDYVIGYSGYDYWGQGTQVTVSS | low polyreactivity |
| QVQLVESGGGLVQAGGSLRLSCSASGSIFSENTMGGYRQAPGKKRELVADITSGGSTNYADSVKGRFTISRDNAKNTVYLQMNSLKPEDTAVYYCAADYNGEYDYWGQGTQVTVSS | low polyreactivity |
| QVQLVESGGGLVQAGGSLRLSCSASGSIIVSYTMGWYRQAPGKERELVAAISGGGASTYYADSVKGRFTISRDNAKNTVYLQMNSLKPEDTAVYYCNADGYYDMDYCGQGTQVTVSS | low polyreactivity |
| QVQLVESGGGLVQAGGSLRLSCSASGSILSAYDMGWYRQATGKERELVAAIDSSGGSTYYADSVKGRFTISRDNAKNTVYLQMNSLKPEDTAVYYCAATSLAGYYKFDYWGQGSQVTVSS | low polyreactivity |
| QVQLVESGGGLVQAGGSLRLSCSASGSTFDVYAMGRYRQAPGKERELVAAISRSGGSTYYADSVKGRFTISRDNAKNTVYLQMNSLKPEDTAVYYCAAEVGIVDYDYWGQGTQVTVSS | low polyreactivity |
| QVQLVESGGGLVQAGGSLRLSCSASGSTFFIYAMGWYRQAPWKERELVAAIRSGGTYYADSVKGRFTISRDNAKITVYLQMKSLKPEDTAVYYCAARTRGFRYYYWGQGTQVTVSS | high polyreactivity |
| QVQLVESGGGLVQAGGSLRLSCSASGSTFFWNAMGWYRQAPGKESEFVAAISSSSGSTYYADSVKGRFTISRDNAKNTVYLQMNSLKPEDTAVYYCAARPWGNVFDSAVSYDYWGQGTQVTVSS | low polyreactivity |
| QVQLVESGGGLVQAGGSLRLSCSASGSTFNVNAMGWYRQAPGKERELVAAIRTSGGSTYYADSVKGRFTISRDNAKNTVYLQMNSLKQEDTAVYYCNARVGSSSSRYYYWGQGTQVTVSS | low polyreactivity |
| QVQLVESGGGLVQAGGSLRLSCSASGSTFRIYAMGWYRQAPGKERELVAAISWSSGSTYYADSVKGRFTISRDNAKKSVYLQMNSLKPEDTAVYYCATYARRSGYYYWGQGSQVTVSS | high polyreactivity |
| QVQLVESGGGLVQAGGSLRLSCSASGSTFVTNVIGWYRQAPGKERELVAAISYSGGNTYYEDSVKGRFTISRDNAKNTVYLQMNSLKPEDTAVYYCAASYKPFKKMGYWGQGTQVTVSS | high polyreactivity |
| QVQLVESGGGLVQAGGSLRLSCSASGSTFYVYAMGWYRQAPGKERELVAAITDSGGSTYADSVKGRFTISRDNAKNTVYLQMNSLKPEDTAVYADSTYNWYYYYWGQGTQVTVSS | low polyreactivity |
| QVQLVESGGGLVQAGGSLRLSCSPSGSIFVSYTMGWYRQAPGKERELVAAISSGGSTYYADSVKGRFTITRDNAKNTVYLQMNSLKPEDTAVYYCARRLTREYDYWGQGTQVTVSS | low polyreactivity |
| QVQLVESGGGLVQAGGSLRLSCTASGIIFGTYAMGLYRQAPGKERELVAAISSSGVSTYYADSVKGRFTISRDNAKNTVYLQMNSLKPEDTAVYYCAAPLHYGYYYWGQGTQVTVSS | high polyreactivity |
| QVQLVESGGGLVQAGGSLRLSCTASGSTFVAYAMGWYRQAPGKERELVAAITSSGGRTYYADSVKGRFTISRDNAKNTVYLQMNSLKPEDTAVYYCAAVTHGRYDWGQGTQVTVSS | high polyreactivity |

| Sequence | polyreactivity (PSR sort gate) |
| --- | --- |
| QVQLVESGGGLVQAGGSLRLSCVASGRIFQSYAMGWYRQAPGKERELVARITGGSSTYYADSVKGRFTISRDNAKNTVYLQMNSLKPEDTAVYYCAARTRGPDRARYDYWGQGTQVTVSS | low polyreactivity |
| QVQLVESGGGLVQAGGSLRLSCVASGRTFGNNAMGWYRQAHGKERELVAAITSGGSTNYADSVKGCFTISRDNAKNTVYLQMNSLKPEDTAVYYCAAKQYRAGGGYWGQGSQVTVSS | high polyreactivity |
| QVQLVESGGGLVQAGGSLRLSCVASGSISQTYAMGWYRQAPGKERELVAAISSSGASTYYADSVKGRFTISRDNAKNTVYLQMNSLKPEDTAVYYCNADKFRRYGYWGQGTQVTVSS | high polyreactivity |
| QVQLVESGGGLVQAGGSLRLSFAASGFTFYYYTMGWYRQEPGKERELVAGISRRRGSTRYADSVKGRFTISRDNAKNTVYLQMNSLKPEDTAVYYCAAYPVVTEFDYWGQGTQVTVSS | high polyreactivity |
| QVQLVESGGGLVQAGGSLRLSFAASGFTISYYAMGWYRQAPGKERELVAAISQSGGSTYYADSVKGRFTISRDNAKNTVYLQMNSLKPEDTAVYYCAADTYYNLGNYWGQGTQVTVSS | high polyreactivity |
| QVQLVESGGGLVQAGGSLRLSFAASGGIFRLYAMGWYRQAPGKERELVAAINGGGSTNYADSVKGRFTISRDNAKNTVYLQMNSLKPEDTAVYYCNAVQYYRFQVYEYDYWGQGTQVTVSS | high polyreactivity |
| QVQLVESGGGLVQAGGSLRLSFAASGNIFVYYAMGWYRQAPGKVRELVAAISFRGGTTYYADSVKGRFTISRDNAKNTVYLQMNSLKPEDTAVYYCAARTMPRVSRKTFGYWGQGTQVTVSS | low polyreactivity |
| QVQLVESGGGLVQAGGSLRLSFAASGRIFYNYAMGWYRQAPGTERELVAAITDSDGSTYADSVKGRFTISRDNAMNTVYFQMNSLKPEDTAVYYCAARRYYPYKYRYGYWGQGTQVTVSS | high polyreactivity |
| QVQLVESGGGLVQAGGSLRLSFAASGRIFYVYAMGWYRQAPGKERELVAAITYSGGSTYYADSVKGRFTISRDNAKNTVYLQMNSLKPEDTAVYYCATEGSYTRWSRGLDYWGQGTQVTVSS | low polyreactivity |
| QVQLVESGGGLVQAGGSLRLSFAASGRIIGYYAMGWYRQAPGKERELVAAITRGGSTNYADSVKGRFTISRDNAKNTVYLQMNSLKPEDTAVYYCAADLARYGKRYDYWGQGTQVTVSS | low polyreactivity |
| QVQLVESGGGLVQAGGSLRLSFAASGRTFEPYPLGWYRQAPGKERELVAAIDVGDGTTYYAYSVKGRFTISRDNAKYTVYLELNSLKPEDTAVYYCAADVIGFVGSEDYWGQGTQVTVSS | low polyreactivity |
| QVQLVESGGGLVQAGGSLRLSFAASGRTFVRYAMVWYRQAPGKERELVAAISWSGGSTYYADSVKGRFTISRDNAKNTVYLQMNSLKPEDTAVYYCAAYYRGGNFDYWGQGTQVTLSS | high polyreactivity |
| QVQLVESGGGLVQAGGSLRLSFAASGRTFYQYGQGWYRQAPGKERELVAAISDSGGGTYYADSVKGRFTFSRDNAKNTVYLQMNSLIPEDTAVYYCAATYVGPRRRYYYWGQGTQVTVSS | high polyreactivity |
| QVQLVESGGGLVQAGGSLRLSFAASGSIFFGNAKGCYRQAPVKERELVAAITRRGGSTYYADSVKGRFTISRDNAKNPVYLQMYSLKAEDTAVYYCNGVSKRYGYGYWGQGTQVTVSS | high polyreactivity |
| QVQLVESGGGLVQAGGSLRLSFAASGSILSYYAMGWYTQAPGKERELGAAISKSGGRTYYADSVKGRFTISRDNEKNTVYLQMNSLKPEDTAVYYCAADRYYLSRRPVQNGNEYWGQGTQVTVSS | high polyreactivity |
| QVQLVESGGGLVQAGGSLRLSFAASGSTFHYYAMGWYRQAPGKERELVAAINSGARTYYADSVKGRFTISRDNAKNTVYLQMNSLKPEDTAVYYCAADDSYRSIGGDYWGQGTQVTVSS | low polyreactivity |
| QVQLVESGGGLVQAGGSLRLSFAASGSTFPKYAMRGYRPAPGKQRELVASISVTTGSTNYADSEKGRFTISRDNAKNTVYLQMNSLKPEDTAVYYCAADTVYRTHHYAQHYYYWGQGTLVTVSS | high polyreactivity |
| QVQLVESGGGLVQAGGSLRLSGAASGFTFFINGMGWYRQAPGKVRELVAAIRSSGASTYYADSVKGRFTISRDNAKNTVYLQMNSLKPEDTAVYYCNARSRVGNSVADYDYCGQGTQVTVSS | low polyreactivity |
| QVQLVESGGGLVQAGGSLRLSGAASGITFGDYAMGWYRQEPGKERELVAAISYSGGSTYYTDSVKGRFTISRDNAKNTVYLQMNSLKPEDTAVYYCAARFRQLGLAYYYWGQGTQVTVSS | high polyreactivity |
| QVQLVESGGGLVQAGGSLRLSGAASGLIFSRYAMGWYRQAPGKVRELVAAITSGTSTYDADSVKGRFTISRDNAKNTVYKQMNSLKPEDTAGYYCAARWWTYNARDYPDYYWGQGTQVTVSS | high polyreactivity |
